The values that follow come from patent US20230235080A1, “TROPHOBLAST CELL-SURFACE ANTIGEN-2 (TROP-2) ANTIBODIES” (Bionecure Therapeutics, Inc., priority 2020, published 2023).

Read-outs that look alike come from different tables or passages of the source.

For test [1], the target named is T1, human Trop-2 on Trop-2 positive cancer cells (human, UniProt P09758 27-323).
T1 sequence (looked up): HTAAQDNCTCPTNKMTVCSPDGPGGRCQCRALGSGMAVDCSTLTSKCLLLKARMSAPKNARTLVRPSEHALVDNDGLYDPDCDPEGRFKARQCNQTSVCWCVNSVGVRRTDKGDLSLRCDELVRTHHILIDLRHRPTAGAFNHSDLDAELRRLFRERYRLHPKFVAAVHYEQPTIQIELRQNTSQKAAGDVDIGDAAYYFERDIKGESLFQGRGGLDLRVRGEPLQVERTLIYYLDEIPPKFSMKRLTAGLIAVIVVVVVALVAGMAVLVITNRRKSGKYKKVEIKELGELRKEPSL
Kind of test: cell-based or functional assay.

Test [2] addresses T1, human Trop-2 on Trop-2 positive cancer …. In words: cell-based or functional assay. The source holds these as a separate data set.
The target of test [3] is T2, human Trop-2-ECD-6His fusion protein (human, UniProt P09758 27-274).
T2 construct: Expressed in a human 293 cell line; also called huTrop-2; human Trop-2 antigen
T2 sequence: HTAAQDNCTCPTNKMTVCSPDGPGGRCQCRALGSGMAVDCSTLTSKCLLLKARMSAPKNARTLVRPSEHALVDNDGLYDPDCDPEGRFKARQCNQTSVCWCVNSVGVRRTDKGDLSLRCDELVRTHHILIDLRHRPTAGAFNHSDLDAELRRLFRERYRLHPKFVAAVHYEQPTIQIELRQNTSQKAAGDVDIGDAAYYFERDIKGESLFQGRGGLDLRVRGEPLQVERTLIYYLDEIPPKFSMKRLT
In words: antigen binding ELISA on immobilized human Trop-2-ECD-6His. (ELISA stands for enzyme-linked immunosorbent assay.)

In test [4] the target is T2, human Trop-2-ECD-6His fusion protein. The test is described as above. This is another data set of the same source.
For test [5] the target is unchanged. Kind of test: BLI (Octet), antibody at 8 ug/ml, human Trop-2ECD-6His at 3.125-50 nM. The procedure: The binding affinity of the purified anti-Trop-2 IgGs to human Trop-2 protein were determined by Octet system based on Bio-Layer Interferometry (BLI) technique. BLI is a layer of molecules attached to the tip of an optic fiber which creates an interference pattern at the detector, any change in the number of molecules bound causes a measured shift in the pattern. Octet system enables real-time analysis for determination of affinity and kinetics from biomolecular interactions in 96-well microplates. […] A1X4 or A1,2X4 antibody was diluted and added to the assigned wells at a final concentration 8 µg/ml. The plate was put in the Octet system and assay was started. The data was analyzed using the Octet Data Acquisition Software (fortebio data analysis 10.0) to calculate an association rate constant Kon, a dissociation rate constant Koff, and a dissociation constant Kd (Kd = Koff/Kon).
On the technique in general: Biolayer interferometry detects binding as a change in optical thickness at a sensor tip.

Test [6] has as its target T1, human Trop-2 on Trop-2 positive cancer …. Kind of test: flow cytometry on MDA-MB-468 cells, MFI at 4 °C against the antibody concentration (about 400 to 10000 ng/ml); Kd (µg/ml) printed beside the legend. How it is done:
Internalizationi and degradation of anti-Trop-2 antibodies was measured by flow cytometry. In this study, fluorescent-conjugated secondary antibodies were used to detect the primary antibodies left on after internalization.
Next, either hRS7, or A1X4, or A1,2X4 antibody was added to cells in FACS buffer at concentrations of 400, 1000, 3000, or 10000 ng/ml, respectively, and incubated for 30 minutes at 4° C. After incubation, the cells were washed three times with FACS buffer to removed unbound antibody. The cells were then incubated at 37° C. with 5% CO₂ for antibody internalization. After 2 hours, the cells were dissociated with Trypsin and stained with fluorescent-conjugated goat anti-human IgG secondary antibodies for 30 minutes on ice in dark before being analyzed using Beckman flow cytometry system. The fluorescent intensity and cell binding percentage at each time point were analyzed by Beckman flow cytometric software. The amount of anti-Trop-2 antibodies internalized into cells at each concentration was determined using the following formula: % internalization rate = 100 × (MFI₄°C- MFI₃₇°C) / MFI₄°C
On the technique in general: In flow cytometry, cells or beads pass a laser one at a time.

Test [7] concerns the target T3, mouse Trop-2-His (mouse, UniProt Q8BGV3 25-270).
T3 sequence (looked up): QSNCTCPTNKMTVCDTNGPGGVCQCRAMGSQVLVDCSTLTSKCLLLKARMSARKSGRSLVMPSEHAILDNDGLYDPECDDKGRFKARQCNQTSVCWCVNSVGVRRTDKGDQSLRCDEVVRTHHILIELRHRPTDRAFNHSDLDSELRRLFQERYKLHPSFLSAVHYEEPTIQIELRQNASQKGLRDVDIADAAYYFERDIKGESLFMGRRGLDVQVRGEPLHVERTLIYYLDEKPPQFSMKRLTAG
In words: ELISA on coated antigen, one antibody dilution (concentration not given); on the sheet OD405, detected by GAM/H-AP.

The target of test [8] is T4, human EPCAM-His (human, UniProt P16422 24-265).
T4 construct: also called hEPCAM
T4 sequence (looked up): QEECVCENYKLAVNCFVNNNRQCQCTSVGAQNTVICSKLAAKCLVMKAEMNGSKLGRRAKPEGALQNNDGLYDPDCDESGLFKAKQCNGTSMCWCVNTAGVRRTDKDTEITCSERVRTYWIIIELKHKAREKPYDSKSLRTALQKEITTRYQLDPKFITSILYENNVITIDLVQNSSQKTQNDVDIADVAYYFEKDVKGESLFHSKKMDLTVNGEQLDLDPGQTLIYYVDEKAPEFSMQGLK
Described as above.

B1: benchmark antibody hRS7 (antibody, V domains shown)
VH: QVQLQQSGSELKKPGASVKVSCKASGYTFTNYGMNWVKQAPGQGLKWMGWINTYTGEPTYTDDFKGRFAFSLDTSVSTAYLQISSLKADDTAVYFCARGGFGSSYWYFDVWGQGSLVTVSS
VL: DIQLTQSPSSLSASVGDRVSITCKASQDVSIAVAWYQQKPGKAPKLLIYSASYRYTGVPDRFSGSGSGTDFTLTISSLQPEDFAVYYCQQHYITPLTFGAGTKVDIK
Usually EC50 stands for the concentration at which the effect is half-maximal. A higher EC50 goes with lower potency in that assay. As usually defined, the Kd is the free concentration of one partner at which half of the binding sites on the other are occupied at equilibrium, for simple one-to-one binding. A high value points to lower affinity. As a reminder, the koff is the first-order rate constant of dissociation. Low values mean a long-lived complex, high ones a short-lived complex. Regarding B1, the entries for the “Internalization rate (flow cytometry, MDA-MB-468 cells)” value in test [1] and in test [2] were 10.9% and 23.9%, respectively. Moreover, the EC50 in test [3] came to 0.09 nM; in test [4], 0.062 nM. The values for the Kd in test [5] and in test [6] were 0.78 nM and 0.78 µg/mL, respectively. In test [5], the koff is 0.000244 s⁻¹.

B2: murine-human chimeric IgG1 #125-1-5 (antibody, V domains shown)
VH: QIQLVQSGPELVKPGASVKMSCKASGYTFTTYVIHWVKQKPGQGLEWIGYINPNNDGTKYNEKFKGKATLISDKSSTTAYMEVRGLTSEDSAVYYCARPHFETHAMDYWGQGTSVTVSS
VL: DIQMTQSPSSFSVSLGDSVTITCKASEDIFNRLAWYQQKPGNAPRLLISGATSLETGVPSRFSGGGSGKEYTLSITSLQNEDVATYYCQQYWNTWTFGGGTKLEIKR
notes: Chimeric IgG1 expressed in HEK293-6E cells
Turning to B2, the binding result in test [7] and in test [8] was “no binding” throughout.

B3: murine-human chimeric IgG1 #118-2-5 (antibody, V domains shown)
VH: QVQLKQSGPGLVAPSQSLSITCTVSGFSLTSYGVNWIRQPPGKGLEWLGVMWAGGSTNYNSALMSRLSISKDNSKSQVFLKMNSLQTDDTGMYYCARDENWDGAWFAYWGQGTLVTVSA
VL: DIQMTQSPSSLAVSAGEKVTMSCKSSQSLLNSGTRKNYLAWYQQKPGQSPKLLISWASSRESGVPDRFTGSGSGTDFTLTISSVQAEDLAVYYCKQSYNLFTFGGGTKLELKR
notes: as for B2
For B3, the binding result in test [7] and in test [8] was “no binding” each time.
